Assay [1] has as its target firefly luciferase (FLuc), wild type (Photinus pyralis) [luciferase: P08659].
For assay [2], the target named is FLucNC-Atto532 (Photinus pyralis). Nature of the assay: AUC; sedimentation velocity, detection at 532 nm; GuHCl-denatured FLuc-Atto532 diluted to 200 nM in folding buffer with 3 µM DnaK, 1 µM DnaJ, 5 mM ATP.

Chain of DnaK (P0A6Y8 whole entry): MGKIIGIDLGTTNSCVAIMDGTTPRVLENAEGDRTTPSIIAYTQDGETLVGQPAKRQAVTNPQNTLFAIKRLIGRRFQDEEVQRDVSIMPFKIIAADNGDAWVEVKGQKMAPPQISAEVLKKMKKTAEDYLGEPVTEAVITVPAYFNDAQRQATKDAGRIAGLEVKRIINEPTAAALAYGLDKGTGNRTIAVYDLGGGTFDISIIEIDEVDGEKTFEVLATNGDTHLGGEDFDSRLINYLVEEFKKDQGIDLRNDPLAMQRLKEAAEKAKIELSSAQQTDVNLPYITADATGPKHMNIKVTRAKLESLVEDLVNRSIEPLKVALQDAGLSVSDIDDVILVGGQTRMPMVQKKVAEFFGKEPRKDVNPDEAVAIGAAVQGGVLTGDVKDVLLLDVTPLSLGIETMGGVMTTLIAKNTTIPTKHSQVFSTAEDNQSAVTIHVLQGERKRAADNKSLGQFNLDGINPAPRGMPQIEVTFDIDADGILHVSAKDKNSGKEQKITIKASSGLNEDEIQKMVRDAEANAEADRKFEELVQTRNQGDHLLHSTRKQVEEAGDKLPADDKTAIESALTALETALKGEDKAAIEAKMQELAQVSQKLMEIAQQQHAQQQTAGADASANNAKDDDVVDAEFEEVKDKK
Chain of DnaJ (P08622 whole entry): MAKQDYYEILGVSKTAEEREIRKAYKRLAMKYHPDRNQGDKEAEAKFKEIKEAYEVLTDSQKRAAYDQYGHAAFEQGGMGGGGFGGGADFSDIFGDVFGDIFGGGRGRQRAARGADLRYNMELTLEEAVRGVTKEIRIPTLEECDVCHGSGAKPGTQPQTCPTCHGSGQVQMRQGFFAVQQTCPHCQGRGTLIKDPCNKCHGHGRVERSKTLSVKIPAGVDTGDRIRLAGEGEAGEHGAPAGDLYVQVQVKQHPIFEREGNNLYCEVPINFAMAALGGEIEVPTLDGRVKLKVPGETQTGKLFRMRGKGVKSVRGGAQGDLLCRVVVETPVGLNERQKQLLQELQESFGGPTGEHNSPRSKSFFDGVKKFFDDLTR

As for “DnaJ (from UniProt P08622 1-376) (natural protein)”, in assay [1], the yield of luminescence refolding of FLuc in the presence of KJE without ATP amounted to 40%.
The substance “DnaK (from UniProt P0A6Y8 1-638) (natural protein)” gave a stoichiometry N (DnaK per FLuc) in assay [2] of 12.
